The RNAGym collection of RNA variant scans (doi:10.7554/elife.80360)

B1: Hairpin Ribozyme (parent)
chain: GUCCUCUUUCACGUGCGCGUGAAAGAGAGAAGUGAACCAGAGAAACACACGUUGUGGUAUAUUACCUGGUA

Variants of: B1
Assay: self-cleavage, relative activity (ratio to wild type); higher = more cleavage; co-transcriptional
With C38U G56C the self-cleavage was 0.171.
In the case of A39U A64G, the self-cleavage is reported as 0.116.
With G40A G42U the self-cleavage was 0.127.
A39G A61U showed a self-cleavage of 0.152.
C38U G40C gave a self-cleavage of 0.118.
In the case of C38U U67G, the self-cleavage is reported as 0.204.
Work on C38A U52C yielded a self-cleavage of 0.193.
In the case of C38A U52G, the self-cleavage is reported as 0.0831.
With C38A U52A the self-cleavage was 0.41.
C38G U55C showed a self-cleavage of 0.0193.
In the case of C37G G42A, the self-cleavage is reported as 0.117.
Work on G40C U62G yielded a self-cleavage of 0.0847.
With A39U C66U the self-cleavage was 0.213.
For C37G A61U, the self-cleavage was 0.155.
For C38U C46G, the self-cleavage was 0.123.
C37G U63G gave a self-cleavage of 0.129.
Work on C37G U63A yielded a self-cleavage of 0.172.
In the case of C38U G68C, the self-cleavage is reported as 0.171.
Variant C38G C65G has a self-cleavage of 0.0624.
Variant C38G A44U has a self-cleavage of 0.207.
Work on G40C A61C yielded a self-cleavage of 0.107.
With C38U U63C the self-cleavage was 0.128.
C38U U63G gave a self-cleavage of 0.186.
C37U C38A gave a self-cleavage of 0.145.
In the case of A39U U62A, the self-cleavage is reported as 0.126.
In the case of C37U G54U, the self-cleavage is reported as 0.443.
With C37U G54A the self-cleavage was 0.397.
For A39C A61C, the self-cleavage was 0.117.
With A39G U55A the self-cleavage was 0.0918.
With C38U U55G the self-cleavage was 0.137.
A39C U53C showed a self-cleavage of 0.42.
In the case of C38A G57U, the self-cleavage is reported as 0.0968.
In the case of C38A G57C, the self-cleavage is reported as 0.157.
With C38A G57A the self-cleavage was 0.0809.
Variant A39U A49G has a self-cleavage of 0.169.
With A39C G68C the self-cleavage was 0.191.
With C37A U52G the self-cleavage was 0.224.
G40C A64G showed a self-cleavage of 0.129.
In the case of G40C A64C, the self-cleavage is reported as 0.126.
Variant G40U A44C has a self-cleavage of 0.105.
For A39C U63C, the self-cleavage was 0.122.
In the case of C38G U52A, the self-cleavage is reported as 0.169.
In the case of C38G U52G, the self-cleavage is reported as 0.0784.
In the case of C38G U52C, the self-cleavage is reported as 0.224.
C38A U53G showed a self-cleavage of 0.0628.
Variant C37A G57U has a self-cleavage of 0.142.
G40C G69C gave a self-cleavage of 0.169.
G40A C65G showed a self-cleavage of 0.0639.
G40C U67C gave a self-cleavage of 0.098.
A39G U53A gave a self-cleavage of 0.295.
In the case of C37G U53C, the self-cleavage is reported as 0.586.
Work on C37G U53G yielded a self-cleavage of 0.238.
Work on C37G C46A yielded a self-cleavage of 0.174.
For C37G C46G, the self-cleavage was 0.211.
Variant C37G C46U has a self-cleavage of 0.122.
Work on C38U G57C yielded a self-cleavage of 0.182.
C37G G69U showed a self-cleavage of 0.644.
For C37U G40C, the self-cleavage was 0.172.
With C38G A43C the self-cleavage was 0.198.
For C37G C48G, the self-cleavage was 0.0962.
C38U A71G showed a self-cleavage of 0.681.
Work on A39G C50U yielded a self-cleavage of 0.148.
A39G C50A gave a self-cleavage of 0.196.
In the case of A39G U60A, the self-cleavage is reported as 0.228.
With C38G G68A the self-cleavage was 0.247.
With G40A U62C the self-cleavage was 0.141.
Variant G40A U62A has a self-cleavage of 0.12.
Variant C37U A47C has a self-cleavage of 0.16.
In the case of A39C A71C, the self-cleavage is reported as 0.88.
With A39G C48G the self-cleavage was 0.0932.
Variant C37U U70G has a self-cleavage of 0.505.
For A39U G54U, the self-cleavage was 0.163.
C37G A47U gave a self-cleavage of 0.113.
In the case of C37A U62C, the self-cleavage is reported as 0.196.
In the case of C38G C46G, the self-cleavage is reported as 0.161.
In the case of C37U U63C, the self-cleavage is reported as 0.0912.
In the case of C37U U63A, the self-cleavage is reported as 0.24.
For C38A A45G, the self-cleavage was 0.104.
Variant C38A A45U has a self-cleavage of 0.143.
With C38U U70G the self-cleavage was 0.39.
In the case of C38G C50U, the self-cleavage is reported as 0.0995.
A39C A44U gave a self-cleavage of 0.129.
For C38U A59C, the self-cleavage was 0.228.
G40C A41C gave a self-cleavage of 0.108.
With C38G A61C the self-cleavage was 0.133.
In the case of G40C C65U, the self-cleavage is reported as 0.129.
C38U U53G gave a self-cleavage of 0.431.
C38U U53C gave a self-cleavage of 0.823.
With C38U U53A the self-cleavage was 0.731.
In the case of C37U U53A, the self-cleavage is reported as 0.775.
Work on C37U U53G yielded a self-cleavage of 0.364.
C38A G69A gave a self-cleavage of 0.146.
With C38U U58A the self-cleavage was 0.333.
In the case of C37A U60G, the self-cleavage is reported as 0.171.
For G40A A61U, the self-cleavage was 0.177.
Variant A39U A61G has a self-cleavage of 0.0916.
A39U A61U gave a self-cleavage of 0.125.
For A39U A44C, the self-cleavage was 0.127.
A39U A44U gave a self-cleavage of 0.102.
Variant C38G U53A has a self-cleavage of 0.185.
For G40A A64G, the self-cleavage was 0.119.
Variant G40C C46U has a self-cleavage of 0.116.
For A39G U52C, the self-cleavage was 0.26.
A39G U52G gave a self-cleavage of 0.3.
For C38A U55G, the self-cleavage was 0.183.
C38A U55A gave a self-cleavage of 0.133.
G40A U52A showed a self-cleavage of 0.352.
Work on G40A U52C yielded a self-cleavage of 0.347.
Variant C37G G51U has a self-cleavage of 0.405.
C37A U58G gave a self-cleavage of 0.269.
Work on C37A U58C yielded a self-cleavage of 0.349.
In the case of C38A A41C, the self-cleavage is reported as 0.183.
Variant C38A A41U has a self-cleavage of 0.286.
A39U A71U gave a self-cleavage of 0.19.
Variant C37U A59U has a self-cleavage of 0.16.
A39U U70C gave a self-cleavage of 0.247.
For C38U A47G, the self-cleavage was 0.163.
With C38U A47C the self-cleavage was 0.276.
G40C G68U gave a self-cleavage of 0.148.
G40C G54C showed a self-cleavage of 0.114.
For C38G G42A, the self-cleavage was 0.103.
Variant C37U G57U has a self-cleavage of 0.221.
Variant C37U G57C has a self-cleavage of 0.156.
With A39U A47U the self-cleavage was 0.164.
A39G A41C showed a self-cleavage of 0.267.
Work on C37G G56U yielded a self-cleavage of 0.0996.
For G40A U58A, the self-cleavage was 0.134.
For G40A U58G, the self-cleavage was 0.19.
Variant C38G A41G has a self-cleavage of 0.618.
C38G A41C showed a self-cleavage of 0.264.
In the case of A39G C66U, the self-cleavage is reported as 0.194.
A39G C66A gave a self-cleavage of 0.101.
C38G G56A gave a self-cleavage of 0.134.
Variant C38G G56U has a self-cleavage of 0.0935.
Variant C37U C50A has a self-cleavage of 0.116.
With C37U C50U the self-cleavage was 0.289.
Work on A39U A45U yielded a self-cleavage of 0.142.
A39G C65G showed a self-cleavage of 0.152.
Variant A39C U58C has a self-cleavage of 0.568.
Work on G40A U53C yielded a self-cleavage of 0.46.
With G40A U53G the self-cleavage was 0.169.
For C38U U60G, the self-cleavage was 0.431.
With G40A G51U the self-cleavage was 0.404.
Work on A39C C65U yielded a self-cleavage of 0.401.
A39C C65G showed a self-cleavage of 0.167.
C38A C66G gave a self-cleavage of 0.114.
With G40A C50G the self-cleavage was 0.243.
C38G A47C showed a self-cleavage of 0.128.
With C38G A47G the self-cleavage was 0.116.
Work on A39U U67C yielded a self-cleavage of 0.286.
For A39U U67A, the self-cleavage was 0.73.
In the case of C38A G54C, the self-cleavage is reported as 0.164.
With C38A G54U the self-cleavage was 0.135.
In the case of C38A G54A, the self-cleavage is reported as 0.0977.
Work on A39C C66A yielded a self-cleavage of 0.152.
Work on C37G G68A yielded a self-cleavage of 0.14.
With C38G U70A the self-cleavage was 0.144.
With C37U G51U the self-cleavage was 0.81.
Work on C37G C38G yielded a self-cleavage of 0.0384.
For C37G C38A, the self-cleavage was 0.152.
C37U A41C showed a self-cleavage of 0.567.
For C38U C50A, the self-cleavage was 0.207.
For C38A A71C, the self-cleavage was 0.228.
With G40U the self-cleavage was 0.175.
For G40C, the self-cleavage was 0.128.
With G40A the self-cleavage was 0.329.
With A39G A43C the self-cleavage was 0.137.
